Experimental data: US5279956A, “Activated protein C polypeptides and anti-peptide antibodies, diagnostic methods and systems for inhibiting activated protein C” (The Scripps Research Institute, priority 1991, dated 1994)

How the values were obtained:
APC [1] = molecular target: T1, APC (Homo sapiens, UniProt P04070); assay: Inhibition of APC by recombinant mutant (Arg358)-α1-antitrypsin, time course; assay type: biochemical; conditions: 18 nM APC and 100 nM α1-AT
T1 construct: begins at amino acid residue position 158 and ends at 419; The light chain is 155 amino acid residues in length; tissue Factor IX concentrate from Immuno AG, Vienna; thrombin from Enzyme Research Laboratories
Experimental: Since the number of amino acid residues involved in protease-protease inhibitor complexes is likely to be higher than the number of residues of APC involved in the cleavage of a small chromogenic substrate such as S-2366, the effect of peptide-(390-404) and peptide-(317-331) on the time course of inhibition of APC by a larger pseudosubstrate, recombinant mutant (Arg^358)-α1 -antitrypsin (α1 -AT) was evaluated. […] Heeb et al., J. Biol. Chem. 265:2365-2369 (1990).
Kinetic studies of inhibition of APC were performed with the higher affinity mutant α1 -AT pseudo-substrate. […] The change in absorbance was measured over time as described in the amidolytic assay. […]
Since the number of amino acid residues involved in protease-protease inhibitor complexes is likely to be higher than the number of residues of APC involved in the cleavage of a small chromogenic substrate such as S-2366, the effect of anti-(390-404) antibody on the time course of inhibition of APC by a larger pseudo-substrate, such as recombinant mutant (Arg^358)-α1 -AT was evaluated. […] The change in absorbance was measured over time as described in the amidolytic assay. […]

APC [2] = molecular target: T1, APC; conditions: Heeb et al. 1990; cited from earlier work

T1 sequence (P04070 212-461): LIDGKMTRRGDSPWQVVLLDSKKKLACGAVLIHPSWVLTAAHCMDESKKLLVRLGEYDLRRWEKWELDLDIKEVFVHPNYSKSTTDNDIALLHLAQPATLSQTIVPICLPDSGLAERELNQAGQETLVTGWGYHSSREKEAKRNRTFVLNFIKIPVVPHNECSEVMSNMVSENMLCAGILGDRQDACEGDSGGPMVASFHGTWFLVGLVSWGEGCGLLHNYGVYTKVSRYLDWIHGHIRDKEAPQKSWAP
T1 sequence (P04070 43-197): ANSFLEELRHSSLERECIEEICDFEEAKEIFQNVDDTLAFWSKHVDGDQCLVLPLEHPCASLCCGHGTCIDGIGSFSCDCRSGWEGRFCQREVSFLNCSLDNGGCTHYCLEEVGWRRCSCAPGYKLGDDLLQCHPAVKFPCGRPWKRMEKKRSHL

recombinant (Arg^358)α1 -AT: recombinant mutant α1-antitrypsin with Met358 substituted by Arg, pseudosubstrate inhibitor of APC (Transgene)
calculated half-life for APC (APC [1]): 2 min
increase in the association rate for APC by substitution of Met358 by Arg (APC [2]): over 4400 fold
